Source: patent US20140017240A1 (University of California, published 2014)

Key:
[1] = molecular target: T1, N-cadherin on the cell surface (PC3 cells and LNCaP N-cadherin transfected cells) (human, UniProt P19022 160-906); assay: flow cytometry, diabody on N-cadherin positive cells
T1 construct: whole, on cells; DU145 and untransfected LNCaP cells served as N-cadherin negative cells; also called cellular N-cadherin; cell surface N-cadherin
T1 sequence (looked up): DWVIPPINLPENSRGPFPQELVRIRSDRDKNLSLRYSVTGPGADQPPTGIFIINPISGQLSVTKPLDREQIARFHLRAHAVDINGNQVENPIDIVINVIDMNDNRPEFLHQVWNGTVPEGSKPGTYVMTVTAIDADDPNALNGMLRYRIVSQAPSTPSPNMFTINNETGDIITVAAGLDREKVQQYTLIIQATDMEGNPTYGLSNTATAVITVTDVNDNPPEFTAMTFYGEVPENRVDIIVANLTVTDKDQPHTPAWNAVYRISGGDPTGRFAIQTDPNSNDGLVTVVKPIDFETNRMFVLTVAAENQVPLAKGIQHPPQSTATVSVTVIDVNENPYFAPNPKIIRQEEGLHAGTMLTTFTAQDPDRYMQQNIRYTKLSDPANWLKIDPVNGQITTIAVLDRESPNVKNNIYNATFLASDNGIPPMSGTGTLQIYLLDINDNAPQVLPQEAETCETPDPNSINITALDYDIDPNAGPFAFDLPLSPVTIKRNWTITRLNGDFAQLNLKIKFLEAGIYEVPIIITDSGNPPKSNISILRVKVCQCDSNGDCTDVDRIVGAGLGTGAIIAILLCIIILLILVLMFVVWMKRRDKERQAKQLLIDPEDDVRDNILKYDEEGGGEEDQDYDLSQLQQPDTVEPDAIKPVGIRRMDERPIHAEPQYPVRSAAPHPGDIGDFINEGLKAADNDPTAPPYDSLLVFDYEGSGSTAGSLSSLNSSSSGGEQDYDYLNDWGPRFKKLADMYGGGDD
Method: Flow cytometry was conducted to assess binding of phage antibody clones and diabodies to cellular N-cadherin. For phage antibody staining supernatant concentrated 20 times was used. Individual clones were grown in 20 ml 2TY to a density of 0.5 O.D_{600 nm} when phage were rescued with helper phages. After an overnight culture, monoclonal phage were harvested from the supernatant by precipitation with PEG/NaCl and resuspended in 1 ml PBS/1% BSA. For flow cytometry staining, 5×10⁵ cells were incubated for one hour on ice with 100 μl of 20×PEG concentrated phage antibody clone. Cells were washed in flow buffer (PBS 1% FBS, 1 mM EDTA, 0.02% Sodium azide) and the phage antibody clones detected with monoclonal anti-M13 antibody (Amersham Biosciences). Cells were washed and stained with R-PE congugated anti-mouse antibody. For diabody staining, 5×10⁵ cells were incubated for one hour on ice with the diabody at a 2 μg/ml concentration in flow buffer. Cells were washed and the diabody detected with 1/100 anti-c-Myc-biotin antibody in flow buffer. Cells were finally washed and stained with 1/40 Streptavidin-R-PE (SIGMA) in flow buffer.
The eleven individual phage clones selected by ELISA were tested for cell binding of N-cadherin positive cells (PC3 and LNCaP N-cadherin transfected cells) by flow cytometry. […]

[2] = molecular target: T1, N-cadherin on the cell surface (PC3 …); assay: flow cytometry, diabody at 2 ug/ml on PC3 cells
[3] = molecular target: N-cadherin on the cell surface (PC3 cells and LNCaP N-cadherin transfected cells) (human) (UniProt P19022); assay: flow cytometry, phage clone on N-cadherin positive cells (cell line not stated)
[4] = molecular target: T2, N-cadherin extracellular domains one to three recombinant protein with 6 histidine tag (human, UniProt P19022 160-497); assay: phage ELISA
T2 construct: range 160-497; Expressed in bacteria and purified from the periplasmic fraction on Ni-NTA; also called ECD1-3-6HIS; ECD1-3 6HIS; not shown: 6 histidine tag
T2 sequence (looked up): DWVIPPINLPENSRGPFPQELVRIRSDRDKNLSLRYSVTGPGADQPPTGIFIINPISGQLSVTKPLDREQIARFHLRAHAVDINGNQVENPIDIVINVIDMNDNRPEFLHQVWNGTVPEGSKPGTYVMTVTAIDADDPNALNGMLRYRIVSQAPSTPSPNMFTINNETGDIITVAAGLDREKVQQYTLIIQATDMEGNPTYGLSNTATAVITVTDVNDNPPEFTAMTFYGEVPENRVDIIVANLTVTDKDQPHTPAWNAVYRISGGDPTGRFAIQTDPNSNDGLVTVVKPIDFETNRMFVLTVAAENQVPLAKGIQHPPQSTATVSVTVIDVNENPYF

[5] = molecular target: T3, N-cadherin extracellular domains one to three recombinant protein with 6 histidine tag (human) (UniProt P19022); assay: phage ELISA, plate coated with ECD1-3-6HIS
T3 sequence (looked up): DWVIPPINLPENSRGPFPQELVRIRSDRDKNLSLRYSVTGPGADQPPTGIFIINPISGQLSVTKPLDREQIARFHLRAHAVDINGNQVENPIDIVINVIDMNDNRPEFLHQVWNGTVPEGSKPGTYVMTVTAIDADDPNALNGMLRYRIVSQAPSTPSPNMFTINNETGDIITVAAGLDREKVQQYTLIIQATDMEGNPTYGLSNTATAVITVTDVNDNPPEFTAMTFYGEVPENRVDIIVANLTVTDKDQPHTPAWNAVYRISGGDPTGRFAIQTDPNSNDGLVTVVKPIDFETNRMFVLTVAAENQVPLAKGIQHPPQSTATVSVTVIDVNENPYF

[6] = molecular target: T3, N-cadherin extracellular domains one to three recombinant protein with 6 histidine tag (human); assay: phage ELISA, second phage batch, plate coated with ECD1-3-6HIS
[7] = molecular target: T4, N-cadherin extracellular domains one to three recombinant protein with GST tag (human) (UniProt P19022); assay: phage ELISA, plate coated with ECD1-3-GST
T4 sequence (looked up): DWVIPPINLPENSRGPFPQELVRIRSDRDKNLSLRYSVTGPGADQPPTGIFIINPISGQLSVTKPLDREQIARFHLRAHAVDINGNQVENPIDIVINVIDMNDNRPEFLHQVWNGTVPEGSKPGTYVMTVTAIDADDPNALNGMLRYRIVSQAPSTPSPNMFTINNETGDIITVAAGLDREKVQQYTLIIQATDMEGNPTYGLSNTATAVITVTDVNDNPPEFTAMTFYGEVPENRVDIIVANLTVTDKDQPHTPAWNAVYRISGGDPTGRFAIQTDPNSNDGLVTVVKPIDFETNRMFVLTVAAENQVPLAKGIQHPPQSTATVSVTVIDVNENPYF

[8] = molecular target: T4, N-cadherin extracellular domains one to three recombinant protein with GST tag (human); assay: phage ELISA, second phage batch, plate coated with ECD1-3-GST

B1: E4 diabody (other)
chain: MAQVQLVQSGAEVKKPGESLEISCKGSGYSFANNWIGWVRQMPGKGLEWMGSIYPGDSDVRYSRSFQGHVTISADKSISTAYLQWSSLKASDTAMYYCARHRVAYSGYDAFDIWGQGTMVTVSSGGGGSSVLTQDPAVSVALGQTVRITCQGDSLRSYYPSWYQQKPGQAPVLVIYGKNNRPSGIPDRFSGSSSGNTASLTITGAQAEDEADYYCHSRDRSGNQVLFGGGTKVTVLG
notes: Diabody made from the scFv by shortening the linker; also called E4 Db; not shown: c-Myc and 6HIS tags from the pSyn1 vector
Does B1 bind [1]?
Result: binds

B2: D4 diabody (other)
chain: MAQVQLVQSGAEVKRPGASVRISCKASGYPFTTYPIHWVRQAPGQGLEWMGGINPNSGATKNVQKFQGRVTMTADTSIRTAYMELSRLTSDDTAVYYCARGEGDTGSYLGGYWGLGTLVTVSSGGGGSSELTQDPAVSVALGQTVRITCQGDSLRSYYASWYQQKPGRAPLLVIYGKNIRPSGIPDRFSGSSSGNSASLTITGAQAEDEADYYCNSRDRSGNYLFGVGTKVTVLG
notes: Diabody made from the scFv by shortening the linker; also called D4 Db; not shown: c-Myc and 6HIS tags from the pSyn1 vector
Does B2 bind [2]?
Result: binds

B3: D4 phage antibody clone (scFv)
scFv: MAQVQLVQSGAEVKRPGASVRISCKASGYPFTTYPIHWVRQAPGQGLEWMGGINPNSGATKNVQKFQGRVTMTADTSIRTAYMELSRLTSDDTAVYYCARGEGDTGSYLGGYWGLGTLVTVSSGGGGSGGGGSGGGGSSELTQDPAVSVALGQTVRITCQGDSLRSYYASWYQQKPGRAPLLVIYGKNIRPSGIPDRFSGSSSGNSASLTITGAQAEDEADYYCNSRDRSGNYLFGVGTKVTVLG
B3 was tested. Which Flow Cytometry (MFI) [3] did it give?
The Flow Cytometry (MFI) was 0 MFI.

B4: A14 ScFv phage antibody clone (scFv)
scFv: MAQVQLVQSGGGLAQPGGSLRLSCAASGFTFSRHAMIWVRQAPGKGLEWVSSISGSSDSTSYADSVKGRFTISRDNSKNTLYLQMNTLRAEDTAVYYCAKATGYSYYYGMDVWGPGTTVTVSSGGGGSGGGGSGGGGSDIQMTQSPSSLSASLGDRVTITCRASQGISNYLAWYQQKPGKAPKLLIYGATTLQHGVPSRFSGSGSGTDFSLTISSLQPEDFAIYFCQQAHSFPPTFGGGTKLEIKR
notes: Clone A1 was renamed A14; Selected on ECD4-6HIS; also called A14 (A1)
Does B4 bind [4]?
Result: no binding

B5: A8 phage antibody clone (truncated) (scFv)
scFv: MAQVQLQESGWYFDLWGRGTPVTVSSGGGGSGGGGSGGGGSEIVLTQSPSSLSASVGDRVTITCRASQGIRNDLGWYQQKPGKAPKLLIYAASSLQSGVPSRFSGSGSGTDFTLTISSLQPEDFATYYCLQDYNGWTFGQGTKVEIKR
B5 was tested. Which 1st ELISA (O.D) [5] did it give?
The 1st ELISA (O.D) was 0.25 O.D.

And the Flow Cytometry (MFI) [3]?
The Flow Cytometry (MFI) was 30 MFI.

And the 2nd ELISA (O.D) [6]?
The 2nd ELISA (O.D) was 0.11 O.D.

What about the 1st ELISA (O.D) [7] of the same binder?
The 1st ELISA (O.D) was 0.17 O.D.

And the 2nd ELISA (O.D) [8]?
Its 2nd ELISA (O.D) is 0.05 O.D.

B6: A14 diabody (other)
chain: MAQVQLVQSGGGLAQPGGSLRLSCAASGFTFSRHAMIWVRQAPGKGLEWVSSISGSSDSTSYADSVKGRFTISRDNSKNTLYLQMNTLRAEDTAVYYCAKATGYSYYYGMDVWGPGTTVTVSSGGGGSDIQMTQSPSSLSASLGDRVTITCRASQGISNYLAWYQQKPGKAPKLLIYGATTLQHGVPSRFSGSGSGTDFSLTISSLQPEDFAIYFCQQAHSFPPTFGGGTKLEIKR
notes: Diabody (small bivalent antibody fragment) made from the scFv by shortening the linker from 15 to 5 a.a; also called A14 Db; not shown: c-Myc and 6HIS tags from the pSyn1 vector
Does B6 bind [1]?
Result: binds
